The test deals with 53BP1 fragment (a.a. 1221-1718) fused to an adenylate cyclase fragment (two-hybrid) (UniProt Q12888). Put plainly: cell-based or functional assay.
“i53 + K48Q two-hybrid fusion (designed binder)” showed an Experiment 1 Average Enrichment of 0.55 log2, an Experiment 1 Rep 1 Enrichment of 0.59 log2, an Experiment 1 Rep 2 Enrichment of 0.51 log2 and an Experiment 2 Average Enrichment of 0.34 log2. For the same substance, the Experiment 2 Rep 1 Enrichment came out at 0.2 log2 and the Experiment 2 Rep 2 Enrichment worked out at 0.47 log2.
“i53 + K48R two-hybrid fusion (designed binder)” came in with an Experiment 1 Average Enrichment of 0.35 log2, an Experiment 1 Rep 1 Enrichment of 0.39 log2, an Experiment 1 Rep 2 Enrichment of 0.32 log2 and an Experiment 2 Average Enrichment of 0.14 log2. The substance also registered an Experiment 2 Rep 1 Enrichment of 0.09 log2 and an Experiment 2 Rep 2 Enrichment of 0.19 log2.
For “i53 + K48V two-hybrid fusion (designed binder)”, the Experiment 1 Average Enrichment was determined as 0.54 log2, the Experiment 1 Rep 1 Enrichment is 0.59 log2, the Experiment 1 Rep 2 Enrichment came out at 0.48 log2 and the Experiment 2 Average Enrichment came out at 0.34 log2. This substance also displayed an Experiment 2 Rep 1 Enrichment of 0.23 log2 and an Experiment 2 Rep 2 Enrichment of 0.46 log2.
With “i53 + K63F two-hybrid fusion (designed binder)”, the Experiment 1 Average Enrichment was -0.02 log2, the Experiment 1 Rep 1 Enrichment was -0.01 log2, the Experiment 1 Rep 2 Enrichment is -0.02 log2 and the Experiment 2 Average Enrichment was 0.08 log2. The Experiment 2 Rep 1 Enrichment was -0.06 log2 and the Experiment 2 Rep 2 Enrichment stood at 0.22 log2.
“i53 + K63M two-hybrid fusion (designed binder)”: the Experiment 1 Average Enrichment is -0.07 log2, the Experiment 1 Rep 1 Enrichment is -0.24 log2, the Experiment 1 Rep 2 Enrichment stood at 0.09 log2 and the Experiment 2 Average Enrichment came to 0.2 log2. Further, the Experiment 2 Rep 1 Enrichment came to 0.18 log2 and the Experiment 2 Rep 2 Enrichment worked out at 0.22 log2.
Substance “i53 + K63V two-hybrid fusion (designed binder)” displayed an Experiment 1 Average Enrichment of -0.13 log2, an Experiment 1 Rep 1 Enrichment of -0.15 log2, an Experiment 1 Rep 2 Enrichment of -0.11 log2 and an Experiment 2 Average Enrichment of 0.01 log2. The same substance returned an Experiment 2 Rep 1 Enrichment of 0 log2 and an Experiment 2 Rep 2 Enrichment of 0.02 log2.
In the case of “i53 + K66R two-hybrid fusion (designed binder)”, the Experiment 1 Average Enrichment is -0.69 log2, the Experiment 1 Rep 1 Enrichment was -0.84 log2, the Experiment 1 Rep 2 Enrichment was -0.54 log2 and the Experiment 2 Average Enrichment was 0.55 log2. Further, the Experiment 2 Rep 1 Enrichment was determined as 0.13 log2 and the Experiment 2 Rep 2 Enrichment is 0.97 log2.
For “i53 + L67C two-hybrid fusion (designed binder)”, the Experiment 1 Average Enrichment is 0.04 log2, the Experiment 1 Rep 1 Enrichment was -0.31 log2, the Experiment 1 Rep 2 Enrichment was determined as 0.39 log2 and the Experiment 2 Average Enrichment was found to be 0.73 log2. The Experiment 2 Rep 1 Enrichment was determined as 0.96 log2 and the Experiment 2 Rep 2 Enrichment stood at 0.5 log2.
For the substance “i53 + L67K two-hybrid fusion (designed binder)”, the Experiment 1 Average Enrichment amounted to 2.01 log2, the Experiment 1 Rep 1 Enrichment came to 2.08 log2, the Experiment 1 Rep 2 Enrichment came out at 1.93 log2 and the Experiment 2 Average Enrichment came to 0.89 log2. Also, the Experiment 2 Rep 1 Enrichment amounted to 1.4 log2, the Experiment 2 Rep 2 Enrichment amounted to 0.39 log2, the Percent GFP Positive Rep 1 is 24.2% and the Percent GFP Positive Rep 2 amounted to 11.2%. The substance further came in with a Percent GFP Positive Rep 3 of 21.5%.
Consider “i53 + L67M two-hybrid fusion (designed binder)”, for which the Experiment 1 Average Enrichment came to 1.03 log2, the Experiment 1 Rep 1 Enrichment came to 0.98 log2, the Experiment 1 Rep 2 Enrichment came to 1.07 log2 and the Experiment 2 Average Enrichment is 0.77 log2. The Experiment 2 Rep 1 Enrichment amounted to 0.65 log2 and the Experiment 2 Rep 2 Enrichment was determined as 0.88 log2.
The substance “i53 + L67S two-hybrid fusion (designed binder)” yielded an Experiment 1 Average Enrichment of 1.18 log2, an Experiment 1 Rep 1 Enrichment of 1.15 log2, an Experiment 1 Rep 2 Enrichment of 1.2 log2 and an Experiment 2 Average Enrichment of 0.94 log2. Moreover, the Experiment 2 Rep 1 Enrichment turned out to be 1.24 log2 and the Experiment 2 Rep 2 Enrichment came to 0.63 log2.
The substance “i53 + L67T two-hybrid fusion (designed binder)” showed an Experiment 1 Average Enrichment of 0.09 log2, an Experiment 1 Rep 1 Enrichment of 0.69 log2, an Experiment 1 Rep 2 Enrichment of -0.52 log2 and an Experiment 2 Average Enrichment of 0.11 log2. Further, the Experiment 2 Rep 1 Enrichment is -0.3 log2 and the Experiment 2 Rep 2 Enrichment is 0.52 log2.
Regarding “i53 + L67Y two-hybrid fusion (designed binder)”, the Experiment 1 Average Enrichment was found to be 0.14 log2, the Experiment 1 Rep 1 Enrichment is -0.58 log2, the Experiment 1 Rep 2 Enrichment worked out at 0.86 log2 and the Experiment 2 Average Enrichment came out at 0.58 log2. The substance further gave an Experiment 2 Rep 1 Enrichment of 0.5 log2 and an Experiment 2 Rep 2 Enrichment of 0.65 log2.
For “i53 + L73M two-hybrid fusion (designed binder)”, the Experiment 1 Average Enrichment was 2.61 log2, the Experiment 1 Rep 1 Enrichment was 2.69 log2, the Experiment 1 Rep 2 Enrichment stood at 2.52 log2 and the Experiment 2 Average Enrichment amounted to 1.43 log2. The same substance yielded an Experiment 2 Rep 1 Enrichment of 1.58 log2, an Experiment 2 Rep 2 Enrichment of 1.28 log2, a Percent GFP Positive Rep 1 of 36.2% and a Percent GFP Positive Rep 2 of 29.2%. In addition, the Percent GFP Positive Rep 3 stood at 39.5%.
The substance “i53 + M1F two-hybrid fusion (designed binder)” had an Experiment 1 Average Enrichment of 0.8 log2, an Experiment 1 Rep 1 Enrichment of 0.71 log2, an Experiment 1 Rep 2 Enrichment of 0.9 log2 and an Experiment 2 Average Enrichment of 0.36 log2. This substance came in with an Experiment 2 Rep 1 Enrichment of 0.39 log2 and an Experiment 2 Rep 2 Enrichment of 0.33 log2.
With “i53 + M1I two-hybrid fusion (designed binder)”, the Experiment 1 Average Enrichment was 0.06 log2, the Experiment 1 Rep 1 Enrichment turned out to be 0.11 log2, the Experiment 1 Rep 2 Enrichment came out at 0.01 log2 and the Experiment 2 Average Enrichment is 0 log2. Further, the Experiment 2 Rep 1 Enrichment was -0.18 log2 and the Experiment 2 Rep 2 Enrichment stood at 0.19 log2.
“i53 + M1N two-hybrid fusion (designed binder)” came in with an Experiment 1 Average Enrichment of -0.25 log2, an Experiment 1 Rep 1 Enrichment of -0.37 log2, an Experiment 1 Rep 2 Enrichment of -0.13 log2 and an Experiment 2 Average Enrichment of 0.02 log2. The Experiment 2 Rep 1 Enrichment is -0.04 log2 and the Experiment 2 Rep 2 Enrichment is 0.08 log2.
In turn, “i53 + M1Q two-hybrid fusion (designed binder)” returned an Experiment 1 Average Enrichment of 1.31 log2, an Experiment 1 Rep 1 Enrichment of 1.23 log2, an Experiment 1 Rep 2 Enrichment of 1.38 log2 and an Experiment 2 Average Enrichment of 0.68 log2. The Experiment 2 Rep 1 Enrichment worked out at 0.58 log2 and the Experiment 2 Rep 2 Enrichment is 0.79 log2.
Substance “i53 + M1R two-hybrid fusion (designed binder)” displayed an Experiment 1 Average Enrichment of 0.1 log2, an Experiment 1 Rep 1 Enrichment of -0.01 log2, an Experiment 1 Rep 2 Enrichment of 0.22 log2 and an Experiment 2 Average Enrichment of 0.21 log2. The Experiment 2 Rep 1 Enrichment amounted to 0.11 log2 and the Experiment 2 Rep 2 Enrichment was found to be 0.3 log2.
Substance “i53 + M1S two-hybrid fusion (designed binder)” had an Experiment 1 Average Enrichment of 0.38 log2, an Experiment 1 Rep 1 Enrichment of 0.55 log2, an Experiment 1 Rep 2 Enrichment of 0.21 log2 and an Experiment 2 Average Enrichment of 0.34 log2. For the same substance, the Experiment 2 Rep 1 Enrichment was 0.27 log2 and the Experiment 2 Rep 2 Enrichment came out at 0.41 log2.
“i53 + M1T two-hybrid fusion (designed binder)”: the Experiment 1 Average Enrichment was found to be 0.68 log2, the Experiment 1 Rep 1 Enrichment was determined as 0.79 log2, the Experiment 1 Rep 2 Enrichment was found to be 0.56 log2 and the Experiment 2 Average Enrichment is 0.61 log2. This substance also had an Experiment 2 Rep 1 Enrichment of 0.63 log2 and an Experiment 2 Rep 2 Enrichment of 0.6 log2.
In the case of “i53 + M1W two-hybrid fusion (designed binder)”, the Experiment 1 Average Enrichment was 1.83 log2, the Experiment 1 Rep 1 Enrichment is 1.95 log2, the Experiment 1 Rep 2 Enrichment turned out to be 1.71 log2 and the Experiment 2 Average Enrichment came out at 0.96 log2. The same substance gave an Experiment 2 Rep 1 Enrichment of 0.99 log2 and an Experiment 2 Rep 2 Enrichment of 0.92 log2.
As for “i53 + M1Y two-hybrid fusion (designed binder)”, the Experiment 1 Average Enrichment turned out to be 2.36 log2, the Experiment 1 Rep 1 Enrichment was 2.56 log2, the Experiment 1 Rep 2 Enrichment was 2.16 log2 and the Experiment 2 Average Enrichment was 1 log2. Further, the Experiment 2 Rep 1 Enrichment came out at 1.18 log2 and the Experiment 2 Rep 2 Enrichment came out at 0.81 log2.
Consider “i53 + N25A two-hybrid fusion (designed binder)”, for which the Experiment 1 Average Enrichment was found to be 0.3 log2, the Experiment 1 Rep 1 Enrichment is 0.12 log2, the Experiment 1 Rep 2 Enrichment came out at 0.49 log2 and the Experiment 2 Average Enrichment worked out at 0.4 log2. In addition, the Experiment 2 Rep 1 Enrichment was 0.39 log2 and the Experiment 2 Rep 2 Enrichment was found to be 0.4 log2.
As for “i53 + N25C two-hybrid fusion (designed binder)”, the Experiment 1 Average Enrichment came to 0.13 log2, the Experiment 1 Rep 1 Enrichment came to 0.45 log2, the Experiment 1 Rep 2 Enrichment was -0.19 log2 and the Experiment 2 Average Enrichment came to 0.26 log2. The substance further came in with an Experiment 2 Rep 1 Enrichment of 0.31 log2 and an Experiment 2 Rep 2 Enrichment of 0.21 log2.
In turn, “i53 + N25D two-hybrid fusion (designed binder)” had an Experiment 1 Average Enrichment of 0.33 log2, an Experiment 1 Rep 1 Enrichment of 0.11 log2, an Experiment 1 Rep 2 Enrichment of 0.54 log2 and an Experiment 2 Average Enrichment of 0.45 log2. In addition, the Experiment 2 Rep 1 Enrichment came to 0.49 log2 and the Experiment 2 Rep 2 Enrichment worked out at 0.41 log2.
For the substance “i53 + N25E two-hybrid fusion (designed binder)”, the Experiment 1 Average Enrichment was found to be 0.56 log2, the Experiment 1 Rep 1 Enrichment turned out to be 0.28 log2, the Experiment 1 Rep 2 Enrichment was 0.84 log2 and the Experiment 2 Average Enrichment amounted to 0.62 log2. This substance registered an Experiment 2 Rep 1 Enrichment of 0.61 log2 and an Experiment 2 Rep 2 Enrichment of 0.64 log2.

For the origin of these results see patent US20230135471A1, “UBIQUITIN VARIANTS WITH IMPROVED AFFINITY FOR 53BP1” (Integrated DNA Technologies, Inc., priority 2021, published 2023).
